From article PMC8294390 (2021)

Molecular target: T1, TNFR1 (Homo sapiens, UniProt P19438)
T1 chain: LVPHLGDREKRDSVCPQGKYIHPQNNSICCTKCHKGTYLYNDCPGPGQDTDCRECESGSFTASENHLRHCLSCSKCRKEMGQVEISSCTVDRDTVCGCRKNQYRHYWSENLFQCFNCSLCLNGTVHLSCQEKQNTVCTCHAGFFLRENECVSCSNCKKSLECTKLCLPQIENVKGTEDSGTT
Experiment: SPR

- Kd: 5.01 nM
B1: Atrosimab (antibody)
chain 1: HVQLVQSGAEVKKPGSSVKVSCKASGYTFTDFYINWVRQAPGQGLEWIGEIVPSQGEAKYNDKFKARVTITADKSTSTAYMELSSLRSEDTAVYYCARWDFLDYWGQGTTVTVSSGTGGGSGPSVFLFPPKPKDTLMISRTPEVTCVVVDVSHEDPEVKFNWYVDGVEVHNAKTKPREEQYNSTYRVVSVLTVLHQDWLNGKEYKCKVSNKGLPSSIEKTISKAKGQPREPSVFIFPPSDEQLKSGTASVVCLVNNFYPRDIAVEWEVDNALQSGNSQESVTEQDSKDSTYSLSSTLTLSKADYEKHKVYSCSVMHEALHNHYTQKSFNRGEC
chain 2: DVQMTQSPSSLSASVGDRVTITCRSSQSLLHSNGNTYLHWYQQKPGKAPKLLIYTVSNRFSGVPSRFSGSGSGTDFTLTISSLQPEDFATYYCSQSTHVPYTFGGGTKVEIKGTGGGSGPSVFLFPPKPKDTLMISRTPEVTCVVVDVSHEDPEVKFNWYVDGVEVHNAKTKPREEQYNSTYRVVSVLTVLHQDWLNGKEYKCKVSNKGLPSSIEKTISKAKGQPREPSVFPLAPSSKSTSGGTAALGCLVKDYFPSDIAVEWESGALTSGVHTFPAVLQSSGLYSLSSVVTVPSSSLGTQTYSCSVMHEALHNHYTQKSVEPKSC
